Residue numbers refer to the chain shown, from its start. Where “and” joins values, the source holds several entries; their conditions need not be identical. Identical values can stand only once.
B1: B7-H4 antibody 0055 (antibody, human IgG1, kappa, V domains shown)
VH: QVQLQESGPGLVKPSETLSLTCTVSGGSISSSSYYWGWIRQPPGKGLEWIGTIYFSGNTYYNPSLKSRVTISVDTSKSQLSLKLNSVTAADTAVYYCARLRVTMVRGVIIGVFDYWGQGTLVTVSS
VL: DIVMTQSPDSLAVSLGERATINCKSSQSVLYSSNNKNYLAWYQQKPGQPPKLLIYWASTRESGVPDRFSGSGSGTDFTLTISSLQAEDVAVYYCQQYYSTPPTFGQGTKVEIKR
notes: also called 32F3
B2: B7-H4 antibody 0060 (antibody, human IgG1, kappa, V domains shown)
VH: B1 VH with G26T, N58S, S78N, L80F, N85T, Y115F
VL: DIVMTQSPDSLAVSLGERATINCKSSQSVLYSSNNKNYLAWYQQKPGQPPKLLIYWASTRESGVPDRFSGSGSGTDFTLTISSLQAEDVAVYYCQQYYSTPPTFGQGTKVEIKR
notes: also called 42E2
B3: B7-H4 antibody 1080 (antibody, human IgG1, kappa, V domains shown)
VH: EVQLVESGGGLVQPGGSLRLSCAVSGGSFSGYYWNWIRQPPGKGLEWIGEINHSGSATYNPSLKSRVTISVDTAKNSLYLQMNSLRAEDTAVYYCARGLYNWNVDHWGQGTLVTVSS
VL: DIQMTQSPSSLSASVGDRVTITCRASQGIRNDLGWYQQKPGKAPKRLIYAASSLQSGVPSRFSGSGSGTDFTLTISSLQPEDFATYYCLQHNAYPRTFGGGTKVEIKR
B4: B7-H4 antibody 0052 (antibody, human IgG1, kappa, V domains shown)
VH: QVQLQQWGAGLLKPSETLSLTCAVYGGSFSGYYWNWIRQPPGKGLEWIGEINHSGSTKYNPSLKSRVTISGDTSKNQFSLKLNSVTAADTAVYYCVRGLYNWNVDSWGQGTLVTVSS
VL: B3 VL with A50V, D70E, A93S, R96Y, G100Q, V104L
notes: also called 28D10
B5: B7-H4 antibody 0538 (antibody, human IgG1, kappa, V domains shown)
VH: B3 VH with V24A, N52D, S54Q, A57T, T58K
VL: B3 VL
B6: B7-H4 antibody 0376 (antibody, human IgG1, kappa, V domains shown)
VH: B3 VH with I37V, P40A, N60V, P61D, L63V, S65G, V67F, V71R, L78F
VL: B3 VL with D70E, A93S
B7: B7-H4 antibody 0352 (antibody, human IgG1, kappa, V domains shown)
VH: B3 VH with V67F, L78F
VL: B3 VL with D70E, A93S
B8: B7-H4 antibody 0362 (antibody, human IgG1, kappa, V domains shown)
VH: B3 VH with I37V, P40A, N52D, S54Q, A57T, T58K, V67F, L78F
VL: B3 VL with D70E, A93S
B9: B7-H4 antibody 0350 (antibody, human IgG1, kappa, V domains shown)
VH: B3 VH with N35S, I37V, V67F, L78F
VL: B3 VL with D70E, A93S
B10: B7-H4 antibody 0368 (antibody, human IgG1, kappa, V domains shown)
VH: B3 VH with V24A, I37V, P40A, I48V, G49A, V67F, V71R
VL: B3 VL with D70E, A93S
B11: B7-H4 antibody 0380 (antibody, human IgG1, kappa, V domains shown)
VH: B3 VH with I37V, P40A, V67F, L78F, G98E
VL: B3 VL with D70E, A93S
B12: B7-H4 antibody 0364 (antibody, human IgG1, kappa, V domains shown)
VH: B3 VH with I37V, P40A, L78F
VL: B3 VL with D70E, A93S
B13: B7-H4 antibody 0053 (antibody, human IgG1, kappa, V domains shown)
VH: QVQLQQWGAGLLKPSETLSLTCAVYGGPFSGYFWSWIRQPPGKGLEWIGEINHSGNTNYNPSLKSRVTISVDTSKNQFSLKLSSVTAADTAVYYCARAGGDYGFYYYYGMDVWGQGTTVTVSS
VL: DIQLTQSPSTLSASVGDRVTITCRASQSISSWLAWYQQKPGKAPELLVYKASRLESGVPSRFSGSGSGTEFTLTISSLQPDDFATYYCQQYNSYFGGGTKVEIKR
notes: also called 29G6
B14: B7-H4 antibody 0061 (antibody, human IgG1, kappa, V domains shown)
VH: B13 VH with P28S, I51F, N56G, Y59S, I69M, Y94F, M110L
VL: B13 VL
notes: also called 46E10
B15: B7-H4 antibody 0057 (antibody, human IgG1, kappa, V domains shown)
VH: EVQLLESGGGLVQPGGSLRLSCAASGFTFSSYAMSWVRQAPGKGLEWVSAISGRGGSTYYTDSVKGRFTISRDNSRNTLYLQMNILRAEDTAVYYCARDLQWFGESTLFDYWGQGTLVTVSS
VL: DIQLTQSPSTLSASVGDRVTITCRASQSISAWLAWFQQKPGKAPKLLIYKASSLESGVPSRFSGSGSGTEFTLTISSLQPDDFATYYCQQYNSYSRSFGQGTKLEIKR
notes: also called 34A3
B16: B7-H4 antibody 0051 (antibody, human IgG1, kappa, V domains shown)
VH: EVQLLESGGGLVQPGGSLRLSCAASGFTFSSYAMSWVRQAPGKGLEWVSSISGNGGSTYYADSVKGRFTISRDNSKNTLSLQMNSLRAEDTAVYYCAKVGWRTGDYWGQGTLVTVSS
VL: B15 VL with A31S, F36Y, P40A, S53D, T69I, R96W, S97T, L104V
notes: also called 27C12
B17: B7-H4 antibody 0056 (antibody, human IgG1, kappa, V domains shown)
VH: EVQLLESGGGLVQPGGSLRLSCAASGFTFSTYAMNWVRQAPGKGLAWVSAISGSGGSTYYADSVKGRFTISRDDSKNTLYLQMNSLRAEDTAVYYCAKVDVVARYYGMDVWGQGTTVTVSS
VL: B15 VL with L4M, A31G, F36Y, K50E, N92K, R96W, S97T, L104V
notes: also called 33G4
B18: B7-H4 antibody 0049 (antibody, human IgG1, kappa, V domains shown)
VH: EVQLLESGGGLVQPGGSLRLSCAASGFTFSSYAMSWVRQAPGKGLEWVSAISGSGGSTYYADSVKGRFTISRDNSKNTLFLHMNSLRAEDTAVYYCARDIQWFGESVFDYWGQGTLVTVSS
VL: B15 VL with L4M, A31S, F36Y, S65N, F83L, Q90Y, S97T, L104V
notes: also called 13F4
B19: B7-H4 antibody 0048 (antibody, human IgG1, kappa, V domains shown)
VH: EVQLLESGGGLVQPGGSLRLSCAASGFTFSSYAMKWVRQAPGKGLEWVSTTSGSGGTTYYADSVKGRFTISRDNSKNTLYLQMNSLRAEDTAVYYCAKAGWAAAFDYWGQGTLVTVSS
VL: DIQLTQFPSTLSASVGDRITITCRASQSISDWLAWYQQKPGKAPKLLIYKASSLESGVPSRFSGSGSGTEFTLTISSLQPDDFATYYCQQCNSYWTFGQGTKVEIKR
notes: also called 11F12
B20: B7-H4xCD3 bispecific antibody 0980 (bispecific antibody, IgG2)
heavy 1: EVQLVESGGGLVQPGGSLRLSCAASGGSFSGYYWNWIRQPPGKGLEWIGEIDHQGSTKYNPSLKSRVTISVDTAKNSLYLQMNSLRAEDTAVYYCARGLYNWNVDHWGQGTLVTVSSASTKGPSVFPLAPCSRSTSESTAALGCLVKDYFPEPVTVSWNSGALTSGVHTFPAVLQSSGLYSLSSVVTVPSSNFGTQTYTCNVDHKPSNTKVDKTVERKCEVECPECPAPPVAGPSVFLFPPKPKDTLMISRTPEVTCVVVAVSHEDPEVQFNWYVDGVEVHNAKTKPREEQFNSTFRVVSVLTVVHQDWLNGKEYKCKVSNKGLPSSIEKTISKTKGQPREPQVYTLPPSREEMTKNQVSLTCEVKGFYPSDIAVEWESNGQPENNYKTTPPMLDSDGSFFLYSKLTVDKSRWQQGNVFSCSVMHEALHNHYTQKSLSLSPG
light 1: DIQMTQSPSSLSASVGDRVTITCRASQGIRNDLGWYQQKPGKAPKRLIYAASSLQSGVPSRFSGSGSGTDFTLTISSLQPEDFATYYCLQHSSYPRTFGGGTKVEIKRTVAAPSVFIFPPSDEQLKSGTASVVCLLNNFYPREAKVQWKVDNALQSGNSQESVTEQDSKDSTYSLSSTLTLSKADYEKHKVYACEVTHQGLSSPVTKSFNRGEC
heavy 2: EVQLVESGGGLVQPGGSLRLSCAASGFTFSDYYMTWVRQAPGKGLEWVAFIRNQARGYTSDHNPSVKGRFTISRDNAKNSLYLQMNSLRAEDTAVYYCARDRPSYYVLDYWGQGTTVTVSSASTKGPSVFPLAPCSRSTSESTAALGCLVKDYFPEPVTVSWNSGALTSGVHTFPAVLQSSGLYSLSSVVTVPSSNFGTQTYTCNVDHKPSNTKVDKTVERKCRVRCPRCPAPPVAGPSVFLFPPKPKDTLMISRTPEVTCVVVAVSHEDPEVQFNWYVDGVEVHNAKTKPREEQFNSTFRVVSVLTVVHQDWLNGKEYKCKVSNKGLPSSIEKTISKTKGQPREPQVYTLPPSREEMTKNQVSLTCLVKGFYPSDIAVEWESNGQPENNYKTTPPMLDSDGSFFLYSRLTVDKSRWQQGNVFSCSVMHEALHNHYTQKSLSLSPGK
light 2: DIQMTQSPSSLSASVGDRVTITCTSSQSLFNVRSQKNYLAWYQQKPGKAPKLLIYWASTRESGVPSRFSGSGSGTDFTLTISSLQPEDFATYYCKQSYDLFTFGGGTKVEIKRTVAAPSVFIFPPSDEQLKSGTASVVCLLNNFYPREAKVQWKVDNALQSGNSQESVTEQDSKDSTYSLSSTLTLSKADYEKHKVYACEVTHQGLSSPVTKSFNRGEC
B21: B7-H4xCD3 bispecific antibody 0982 (bispecific antibody, IgG2)
heavy 1: B20 heavy 1 with A24V, G98E
light 1: B20 light 1
heavy 2: B20 heavy 2
light 2: B20 light 2
B22: B7-H4 antibody 0059 (antibody, human IgG1, kappa, V domains shown)
VH: EVQLLESGGGLVQPGGSLRLSCAASGFTFSSYALSWVRQAPGKGLEWVSTINVGGVDTNYAGSVKGRFTISRDNPKNTLCLQMNSLRAEDTAVYHCAKARITMVRGVIIPLFDYWGQGTLVTVAS
VL: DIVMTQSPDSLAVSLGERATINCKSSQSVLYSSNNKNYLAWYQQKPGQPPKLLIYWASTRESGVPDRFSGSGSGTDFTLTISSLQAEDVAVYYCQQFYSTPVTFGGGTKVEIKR
notes: also called 47A1

Columns and labels:
[1] = molecular target: T1, human B7-H4 extracellular domain (human, UniProt Q7Z7D3 29-258); assay: SPR Biacore 8K 25 C; mAb captured on anti-human Fc, huB7-H4 ECD analyte, 1:1 fit;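 further: antibodies tested as IgG1, running buffer HBS-EP+ at pH 7.4, rate constants and affinity from a 1:1 Langmuir model fit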
T1 construct: For SPR it says only human B7-H4 ECD; also called Hu B7-H4 ECD; huB7-H4 ECD
T1 sequence: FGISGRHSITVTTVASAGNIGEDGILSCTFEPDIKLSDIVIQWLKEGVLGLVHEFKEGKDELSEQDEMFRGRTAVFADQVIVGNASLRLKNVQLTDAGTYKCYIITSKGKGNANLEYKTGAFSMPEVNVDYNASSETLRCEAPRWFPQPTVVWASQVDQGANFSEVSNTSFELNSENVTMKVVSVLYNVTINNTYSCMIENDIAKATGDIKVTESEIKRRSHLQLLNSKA

[2] = molecular target: T1, human B7-H4 extracellular domain; assay: competition ELISA on coated huB7-H4 ECD; competitor biotinylated 0052 (by series, not given)
human B7-H4 on cells = molecular target: T2, human B7-H4 on cells (human, UniProt Q7Z7D3 25-282); assay: cell-based or functional assay
T2 sequence (looked up): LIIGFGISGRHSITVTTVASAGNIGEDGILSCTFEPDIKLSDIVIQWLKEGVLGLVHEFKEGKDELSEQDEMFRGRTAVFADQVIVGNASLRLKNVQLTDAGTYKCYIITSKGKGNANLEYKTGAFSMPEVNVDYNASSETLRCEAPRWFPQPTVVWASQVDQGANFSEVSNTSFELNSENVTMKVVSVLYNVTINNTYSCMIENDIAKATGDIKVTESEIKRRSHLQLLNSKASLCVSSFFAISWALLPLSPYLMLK
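Wherever IC50 is given: tested antibody premixed 1:1 with biotinylated parental antibody, 2 h at room temperature on coated ECD, bound biotin detected via streptavidin-HRP, absorbance read at 450 nm.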

Row | Binder | Kd [1] | koff [1] | kon [1] | IC50 [2] | T cell mediated tumor cell killing EC50, HCC1954-Luc (human B7-H4 on cells)
1 | B1 | 1.9 nM | 0.000725 s⁻¹ | 382000 M⁻¹ s⁻¹ | – | –
2 | B2 | 1.35 nM | 0.00075 s⁻¹ | 558000 M⁻¹ s⁻¹ | – | –
3 | B3 | – | – | – | 1.4 nM | –
4 | B4 | 7.83 nM | 0.0011 s⁻¹ | 140000 M⁻¹ s⁻¹ | – | –
5 | B5 | – | – | – | 21.9 nM | –
6 | B6 | – | – | – | 12.4 nM | –
7 | B7 | – | – | – | 15.8 nM and 12.9 nM | –
8 | B8 | – | – | – | 13.5 nM and 17.1 nM | –
9 | B9 | – | – | – | 17.6 nM | –
10 | B10 | – | – | – | 8.49 nM and 8.3 nM | –
11 | B11 | – | – | – | 13.6 nM and 17.8 nM | –
12 | B12 | – | – | – | 9.13 nM and 10.8 nM | –
13 | B13 | 0.74 nM | 0.000321 s⁻¹ | 434000 M⁻¹ s⁻¹ | – | –
14 | B14 | 0.84 nM | 0.000572 s⁻¹ | 678000 M⁻¹ s⁻¹ | – | –
15 | B15 | 7.92 nM | 0.000508 s⁻¹ | 64100 M⁻¹ s⁻¹ | – | –
16 | B16 | 0.57 nM | 0.000464 s⁻¹ | 814000 M⁻¹ s⁻¹ | – | –
17 | B17 | 0.62 nM | 0.000353 s⁻¹ | 574000 M⁻¹ s⁻¹ | – | –
18 | B18 | 1.85 nM | 0.000414 s⁻¹ | 225000 M⁻¹ s⁻¹ | – | –
19 | B19 | 0.83 nM | 0.000619 s⁻¹ | 745000 M⁻¹ s⁻¹ | – | –
20 | B20 | – | – | – | – | 390 nM
21 | B21 | – | – | – | – | 2650 nM
22 | B22 | 0.68 nM | 0.000389 s⁻¹ | 568000 M⁻¹ s⁻¹ | – | –

From US20220017622A1 (Pfizer, published 2022)
